Data published in patent publication US20230051715A1 (MABWELL THERAPEUTICS, published 2023).

Key:
[1] = target: T1, active human C1s (CompTech A104 C1s Enzyme) (human, UniProt P09871 16-688); assay: BLI (Octet RED96e), antibody on AHC biosensor; HuC1s Form: Active; R^2 0.9994
T1 construct: also called human active C1s; active C1s protein
T1 sequence (looked up): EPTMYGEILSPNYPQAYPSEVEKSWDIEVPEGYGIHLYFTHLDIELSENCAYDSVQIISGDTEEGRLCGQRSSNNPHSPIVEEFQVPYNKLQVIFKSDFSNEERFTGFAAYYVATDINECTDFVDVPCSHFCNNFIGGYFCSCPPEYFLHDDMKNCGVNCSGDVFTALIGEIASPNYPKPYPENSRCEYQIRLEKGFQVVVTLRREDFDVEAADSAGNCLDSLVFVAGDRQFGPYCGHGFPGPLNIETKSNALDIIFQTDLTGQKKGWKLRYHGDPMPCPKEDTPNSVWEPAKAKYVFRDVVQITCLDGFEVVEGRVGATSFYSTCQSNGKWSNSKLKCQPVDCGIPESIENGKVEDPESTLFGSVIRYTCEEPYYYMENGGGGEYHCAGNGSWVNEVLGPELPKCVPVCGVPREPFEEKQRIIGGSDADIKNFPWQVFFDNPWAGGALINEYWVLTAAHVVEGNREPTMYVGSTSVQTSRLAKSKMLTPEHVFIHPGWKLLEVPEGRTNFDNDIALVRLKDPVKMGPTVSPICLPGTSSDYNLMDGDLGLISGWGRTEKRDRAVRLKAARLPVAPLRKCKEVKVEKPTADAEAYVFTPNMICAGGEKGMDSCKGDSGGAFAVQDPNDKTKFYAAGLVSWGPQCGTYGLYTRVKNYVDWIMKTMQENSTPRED
Procedure: (§1) Bio-Layer Interferometry technology was used for anti-C1s antibody affinity measurement and binding kinetics determinations with OCTET® RED96e system (Sartorius AG). Pre-hydrated Anti-Human IgG Fc Capture (AHC) biosensors were first equilibrated in 1×KB (Kinetic Buffer, 1×PBS pH 7.4+0.02% Tween-20+0.1% BSA) for 120 sec for the first baseline, followed by loading with […] anti-C1s antibody (2-7, FIG. 3A; 2-8, FIG. 3B; hz2-7(H1L2), FIG. 3C; hz2-8(H1L2 G80A/T82A, FIG. 3D) onto AHC biosensors for 240 sec. Then, the second baseline signal was established for 120 sec before association with various concentrations of active human C1s (CompTech A104) for 240-360 sec. At last, analyte was dissociated in 1×KB for 360 sec. Anti-C1s antibodies 2-7 and 2-8 were also analyzed against human C1s proenzyme (CompTech A103) (data not shown). Data analysis was carried out using OCTET® Data Analysis HT Software (Sartorius AG). KD, kₒₙ, koff and R² values were calculated for each antibody and target combination, as summarized in FIG. 3E showing high affinity binding with KD values in the low nanomolar to picomolar range.

[2] = target: T2, human C1s proenzyme (CompTech A103) (human, UniProt P09871 16-688); assay: BLI (Octet RED96e), antibody on AHC biosensor; HuC1s Form: Proenzyme; R^2 0.9990
T2 construct: also called proenzyme human C1s (native C1s)
T2 sequence (looked up): T1 sequence (looked up)
Procedure: as §1

[3] = target: T3, full-length human C1s (produced in house) (human, UniProt P09871 16-688); assay: BLI (Octet RED96e), antibody on AHC biosensor; C1s Species: Human; R^2 0.9992
T3 construct: Called full-length; Partly auto-cleaved at R422-I423 on blots; also called HuC1s; Hu C1s
T3 sequence: T1 sequence (looked up)
Description: (§2) At last, analyte was dissociated in 1×KB for 360 sec. Data analysis was done using OCTET® Data Analysis HT Software (Sartorius AG).

[4] = target: T4, rat C1s (produced in house) (rat, UniProt Q6P6T1 16-688); assay: BLI (Octet RED96e), antibody on AHC biosensor; C1s Species: Rat; R^2 0.9718
T4 construct: also called RaC1s
T4 sequence: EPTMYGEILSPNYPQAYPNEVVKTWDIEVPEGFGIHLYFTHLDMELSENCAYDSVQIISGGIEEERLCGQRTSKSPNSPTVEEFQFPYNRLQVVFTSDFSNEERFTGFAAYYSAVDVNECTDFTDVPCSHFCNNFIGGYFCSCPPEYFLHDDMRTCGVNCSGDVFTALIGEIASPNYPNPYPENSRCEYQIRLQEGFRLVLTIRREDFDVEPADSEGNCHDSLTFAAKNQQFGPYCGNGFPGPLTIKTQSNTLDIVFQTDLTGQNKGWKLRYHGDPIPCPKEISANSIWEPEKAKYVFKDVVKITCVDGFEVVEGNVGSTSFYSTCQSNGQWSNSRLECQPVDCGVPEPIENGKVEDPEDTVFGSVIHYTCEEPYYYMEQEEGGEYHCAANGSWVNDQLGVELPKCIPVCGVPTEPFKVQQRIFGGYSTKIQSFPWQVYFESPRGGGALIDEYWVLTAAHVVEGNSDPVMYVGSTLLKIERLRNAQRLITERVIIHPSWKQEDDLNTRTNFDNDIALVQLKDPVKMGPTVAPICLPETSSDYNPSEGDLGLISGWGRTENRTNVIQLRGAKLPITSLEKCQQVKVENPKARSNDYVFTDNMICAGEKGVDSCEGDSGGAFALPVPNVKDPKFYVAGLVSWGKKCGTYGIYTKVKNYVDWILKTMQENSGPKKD
Description: as §2

B1: Anti-C1s antibody 2-7 (antibody, human IgG1, kappa, V domains shown)
VH: EVKLEESGGGLVPPGGSMKLSCVASGFTFSNYFMNWVRQSPEKGLEWVAEIRLKFTNYATHYAESVEGRFTISRDDSKSSVYLQMNNLRAEDTGIYYCTRDYGSRNGYFDYWGQGTTLTVSS
VL: DIVMTQAAPSVPVTPGESVSISCRSSKSLLHSNGNTFLYWFLQRPGQSPQLLIYRMSNLASGVPDRFSGSGSGTAFTLRVSRVEAEDVGIYYCMQHLEYPYTFGGGTKLEIKT
notes: the HC/LC entries may hold it too; also called clone 2-7
- Kd [1]: 0.14 nM
- koff [1]: 4.8e-05 s⁻¹
- kon [1]: 350000 M⁻¹ s⁻¹

B2: Anti-C1s antibody 2-8 (antibody, V domains shown)
VH: EVQLQQSGAELVRPGALVKLSCKASGFNIKEYYMHWVKQRPEQGLEWIGWIDPENGDTIYDPKFQGKASITADTSSNTAYLQLSSLTSEDTAVYYCARSRLFFAYWGQGTLVTVSA
VL: DIVMTQSHKFMSTSVGDRVSFTCKASQDVRTAVDWYQQKPGQSPKLLIYSASYRYTGVPDRFTGTGSGTDFTFTISSVQAEDLAVYFCQQQYTTPYTFGGGTKLEIKT
notes: the HC/LC entries may hold it too; also called clone 2-8
- Kd [2]: 0.49 nM
- koff [2]: 0.00012 s⁻¹
- kon [2]: 250000 M⁻¹ s⁻¹
- Kd [3]: 0.032 nM
- koff [3]: 0.00012 s⁻¹
- kon [3]: 3.8e+06 M⁻¹ s⁻¹

B3: Anti-C1s antibody hz2-8 (H1L2 G80A/T82A) (antibody, V domains shown)
VH: QVQLVQSGAEVKKPGASVKVSCKASGFNIKEYYMHWVRQAPEQGLEWMGWIDPENADAIYAQKFQGRVTITADTSTNTAYMELSSLRSEDTAVYYCARSRLFFAYWGQGTLVTVSS
VL: DIQMTQSPKSLSASVGDRVTITCRASQDVRTALDWYQQKPGQSPKLLIYSASYRYSGVPSRFSGSGSGTDFTLTISSLQPEDFATYYCQQQYTTPYTFGQGTKLEIKR
notes: Humanized variant with G80A and T82A in HC CDR2 (already in the entry), human IgG1 / kappa
- Kd [4]: 16 nM
- koff [4]: 0.0012 s⁻¹
- kon [4]: 75000 M⁻¹ s⁻¹
